doi:10.1101/541805

Molecular target: rat Kv2.2-GFP (rat) (UniProt Q63099)

Substance: GxTX-594 (guangxitoxin-1E Ser13Cys, Met35 norleucine, conjugated to Alexa 594) (from UniProt P84835 1-36) (peptide)
- Pearson correlation coefficient (colocalization with GFP): 0.8
